Test results reported in the RNAGym collection of RNA variant scans (doi:10.7554/elife.80360).

B1: Hairpin Ribozyme (parent)
chain: GUCCUCUUUCACGUGCGCGUGAAAGAGAGAAGUGAACCAGAGAAACACACGUUGUGGUAUAUUACCUGGUA

Variants of: B1
Assay: self-cleavage, relative activity (ratio to wild type); higher = more cleavage; co-transcriptional

Variant | self-cleavage
C4G C38U | 0.129
C3G C66A | 0.101
C4U G32U | 0.0825
C4U G32C | 0.114
C4A G19U | 0.221
C3G U53G | 0.235
C3G U53C | 0.102
C4G A49U | 0.183
C4G A49G | 0.101
C4A A64C | 0.156
C4A A64U | 0.0608
C4A G51U | 0.148
C4A G51A | 0.232
C4A A36G | 0.198
C3U C10G | 0.457
C4G U8A | 0.0905
C3U G32C | 0.133
C3U A59C | 0.143
C3U C66U | 0.239
C4U U53C | 0.398
C4G C37G | 0.168
C4G C37A | 0.209
C3U U5A | 0.429
C4U U58G | 0.218

Variant | self-cleavage
C4G U14A | 0.231
C4G U14G | 0.265
C4A U52A | 0.206
C4U U5C | 0.109
C4U U5G | 0.343
C3G G56C | 0.112
C3G G56U | 0.157
C3G G56A | 0.115
C3U G17A | 0.682
C3U G17C | 0.305
C4U A45U | 0.0517
C4U A23C | 0.3
C3G U5G | 0.163
C3G U5A | 0.15
C4G A39G | 0.0945
C4G A39C | 0.193
C3G G25C | 0.0885
C3U C50A | 0.174
U5A A31G | 0.212
U5A A31C | 0.156
C4A C46U | 0.17
C4A C46G | 0.165
C4G G40A | 0.114
C4G A30U | 0.175

Variant | self-cleavage
C4G A30C | 0.178
C4G A35G | 0.153
C3G U55G | 0.0936
C3G U55C | 0.118
C3U A35U | 0.339
C3U A35C | 0.802
U5A A22U | 0.274
C4A U20C | 0.267
C3U A71C | 0.962
C3U A71U | 0.429
C3U C6U | 0.347
C3U C6A | 0.372
C3U A28C | 0.452
C4U U9C | 0.22
C3G C48U | 0.0425
C4U A26C | 0.144
C3U A30C | 0.161
C3G U62C | 0.0668
C4G C6G | 0.17
C4G C6U | 0.0456
C4A C65A | 0.148
C4G C50A | 0.147
C3G G54C | 0.126
C3G G54U | 0.175

Variant | self-cleavage
U5A A11U | 0.196
C4G U62G | 0.114
C4G U62C | 0.148
C4A G68U | 0.111
C4U G25A | 0.129
C4U G68C | 0.0882
C4U G68A | 0.18
C4A G42U | 0.115
C4U U62A | 0.143
C3U A31U | 0.102
C3U U7C | 0.553
C3U U7G | 0.464
C3G U14A | 0.431
C3U A45C | 0.123
C3U A45G | 0.101
C3U C18A | 0.641
C3U C18G | 0.531
C3U G15A | 0.416
C3U G15U | 0.474
C4U C37U | 0.243
C4A G25C | 0.153
C4A A41C | 0.322
C4A A41U | 0.504
C3G C37U | 0.189

Variant | self-cleavage
C3G C37G | 0.0959
C4G U70G | 0.219
C4G U70A | 0.161
U5A A44G | 0.121
U5A A44C | 0.156
U5A A35U | 0.295
U5A A35G | 0.559
C3U U8A | 0.361
C4A C18A | 0.13
U5A A36C | 0.168
C3U A43G | 0.138
C4G U67G | 0.182
C3G U52C | 0.359
C4U A41U | 0.71
C4U A41C | 0.469
C4A G34U | 1.01
C4A U7A | 0.175
C4A U7C | 0.147
C4G C12A | 0.071
C4U G51U | 0.194
C4U G51A | 0.533
C3U G34A | 0.747
C4A G13U | 0.248
C4U C10G | 0.264

Variant | self-cleavage
C4G C18U | 0.284
C4U A22C | 0.172
C4A A31C | 0.131
C3U A47U | 0.208
C3U A47C | 0.192
C3U A47G | 0.275
C4G U63C | 0.112
C4A A35G | 0.33
C4A A35U | 0.188
C3U A23U | 0.535
C3U A23G | 0.325
C3G U60A | 0.167
C3U C37U | 0.29
C3U G13A | 0.522
C3U G13C | 0.324
C3U A26G | 0.509
C4G A22C | 0.206
C4U A47C | 0.0918
C4U A47U | 0.115
U5A A23G | 0.377
U5A A49G | 0.103
C4U A31U | 0.104
C4U A31C | 0.193
C4G U20C | 0.135

Variant | self-cleavage
U5A A30C | 0.0813
C4A G29C | 0.118
C4A G29U | 0.111
C3G U67A | 0.0949
C3G G68A | 0.085
C3G U63A | 0.108
C3G U63G | 0.18
C4G A43G | 0.121
C3U G21A | 0.483
C4G G13A | 0.193
C4U U60G | 0.299
C4G U52A | 0.143
C4G U52G | 0.184
C4A C38A | 0.104
C4A C38G | 0.175
C3U C4G | 0.235
C4A A39U | 0.0907
C3U C16G | 0.23
C4A C50U | 0.13
U5A A41C | 0.554
C3G C46U | 0.101
C3G C46A | 0.0768
C3U U67G | 0.164
